Blank lines part the entries; values can stand above or below the molecule they belong to.
Columns and labels:
Experiment in all cases: cell-based or functional assay
[1] = target: Her-2 (Human epithelial growth factor 2) on SKBR-3 cells (human) (UniProt P04626)
[2] = target: T1, Her-2 (Human epithelial growth factor 2) on SKBR-3 cells (human, UniProt P04626 23-1255)
[3] = target: T1, Her-2 (Human epithelial growth factor …); remark: listed apart in the source

- IC50, inhibition of proliferation of Her-2 positive cells (SKBR-3), BrdU incorporation [1]: 67000 nM
Molecule: AHNP (peptide)

- IC50, inhibition of proliferation of Her-2 positive cells (SKBR-3), BrdU incorporation [2]: 640 nM
- fold enhancement of EC50 over ANHP, BrdU cell proliferation assay [3]: ~110 fold
B1: Peptide D (peptide)
peptide: MVCVVLYDDK
modifications: not fully specified; N-methyl norvaline at positions 4 and 5 (position 2 is Val, per paragraph 127); cyclized from the lysine side chain to the N-terminus

- IC50, inhibition of proliferation of Her-2 positive cells (SKBR-3), BrdU incorporation [2]: 520 nM
- fold improvement of EC50 over HRAP, BrdU cell proliferation assay [3]: ~450 fold
B2: Peptide 1 (peptide)
peptide: MAVYVHYHK
modifications: not fully specified; V is N-methyl norvaline (positions 3 and 5); cyclized from the lysine side chain to the N-terminus
